What was measured:
[1] = target: human FcRn (hFcRn) (human) (UniProt P55899); test: SPR (XPR36), hFcRn on chip, antibody flowed, pH 6.0
[2] = target: human FcRn (hFcRn) (human) (UniProt P55899); test: SPR (XPR36), hFcRn on chip, antibody flowed, pH 7.4
[3] = target: human FcRn (hFcRn) (human) (UniProt P55899); test: ELISA, antibody coated, hFcRn added, anti-6-His detection, pH 6.0; reference WT
[4] = target: human FcRn (hFcRn) (human) (UniProt P55899); test: ELISA, antibody coated, hFcRn added, anti-6-His detection, pH 7.4; reference WT

Sequence of UniProt P55899 (P55899 24-297 limits assumed, form in doubt): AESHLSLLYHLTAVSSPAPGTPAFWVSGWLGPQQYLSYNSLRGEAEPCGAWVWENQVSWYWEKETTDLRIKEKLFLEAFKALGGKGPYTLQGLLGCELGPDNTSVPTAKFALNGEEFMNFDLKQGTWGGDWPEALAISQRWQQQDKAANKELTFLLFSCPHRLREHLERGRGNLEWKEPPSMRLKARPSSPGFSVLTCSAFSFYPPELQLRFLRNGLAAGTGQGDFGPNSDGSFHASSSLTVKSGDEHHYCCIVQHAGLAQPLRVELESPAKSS

| Substance | RU [1] [RU] | RU [2] [RU] | fold increase of affinity over WT [3] | fold increase of affinity over WT [4] |
| --- | --- | --- | --- | --- |
| MST (M281Y/S283T/T285E) 변이 SO57 항체 (antibody) | 140 | 20 | 12 배 (fold) | 2 배 (fold) |
| HN (H462K/N463F) 변이 SO57 항체 (antibody) | 195 | 100 | 18 배 (fold) | 17 배 (fold) |
| MN (M457L/N463S) 변이 SO57 항체 (antibody) | 180 | 70 | 16 배 (fold) | 15 배 (fold) |

Reference: patent KR20190016466A
